Results on five molecules are retold here after publication PMC8660895, “Hedgehog-Interacting Protein is a multimodal antagonist of Hedgehog signalling” (Nature Communications, 2021).

The target in one data set is T1, HHIP-C (Homo sapiens, UniProt Q96QV1).
T1 construct: C-terminal domain (beta-propeller + 2 EGF repeats), residues 213-670, C-terminal His6 tag, HEK293T with kifunensine; EndoF1-deglycosylated for crystals; mostly monomer without GAG, anti-parallel dimer in crystal
T1 sequence (Q96QV1 213-670): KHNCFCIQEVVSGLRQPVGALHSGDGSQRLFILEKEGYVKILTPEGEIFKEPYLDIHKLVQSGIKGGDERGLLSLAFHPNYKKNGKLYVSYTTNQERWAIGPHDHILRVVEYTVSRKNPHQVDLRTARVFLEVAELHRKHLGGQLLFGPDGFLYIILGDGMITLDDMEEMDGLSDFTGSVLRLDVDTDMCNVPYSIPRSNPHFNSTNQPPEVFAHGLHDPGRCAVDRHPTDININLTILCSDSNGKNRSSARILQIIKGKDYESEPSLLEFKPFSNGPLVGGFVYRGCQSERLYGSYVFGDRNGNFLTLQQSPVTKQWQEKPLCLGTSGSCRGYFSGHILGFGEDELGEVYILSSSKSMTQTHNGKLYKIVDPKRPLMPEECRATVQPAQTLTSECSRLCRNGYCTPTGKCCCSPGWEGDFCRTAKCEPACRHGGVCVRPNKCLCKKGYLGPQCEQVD
As to the kind of experiment: X-ray crystallography (molecular replacement). Format: binding. The following applies: co-crystallised with 10 mM SOS, pH 8.5; two SOS molecules per chain, same site as heparin.

The target of a further data set is heparan sulphate (HS). As to the kind of experiment: SPR. The following applies: GAGs immobilised on the chip; [HHIP-C] 0-40 µM; parent: 0.5 µM.
The target of data set [1] is chondroitin sulphate (CS). Kind of data set: SPR. Conditions: GAGs immobilised on the chip; [HHIP-C] 0-40 µM; parent: 0.7 µM.
The target in a further data set is heparin. As to the kind of experiment: SPR. The following applies: GAGs immobilised on the chip; [HHIP-C] 0-40 µM; parent: 0.2 µM.
In data set [2] the target is HHIP N-terminal domain (HHIP-N) (human) (UniProt Q96QV1). As to the kind of experiment: SEC-MALS; HHIP-N on S200 10/30 column; 10 mM HEPES pH 7.5, 150 mM NaCl; 48–192 μM injected. Background: In gel filtration, larger molecules generally elute earlier.
A further data set deals with T2, HHIP-N (Homo sapiens, UniProt Q96QV1).
T2 construct: EndoF1-deglycosylated for crystals
T2 sequence (Q96QV1 39-209): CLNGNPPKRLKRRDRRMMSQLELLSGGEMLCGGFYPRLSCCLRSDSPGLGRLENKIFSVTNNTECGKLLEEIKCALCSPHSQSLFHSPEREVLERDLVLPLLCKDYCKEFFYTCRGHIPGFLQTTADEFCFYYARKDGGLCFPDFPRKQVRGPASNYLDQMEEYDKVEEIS
As to the kind of experiment: isothermal titration calorimetry. The following applies: pH 7.5, 25 °C, 150 mM NaCl, 3% isopropanol; PEG length and linkage of the conjugate not told. The class given is binding. For orientation: In ITC the heat of successive injections is recorded.

Data set [3] deals with the molecule itself. Kind of data set: AUC; sedimentation velocity; HHIP-C alone at 1 mg/mL; 10 mM HEPES pH 7.5, 120 mM NaCl; 20 °C; c(s) distributions.

Where “and” joins values, the source holds several entries; their conditions need not be identical. Equal entries are not always repeated.

On to `O=S(=O)(O)OC[C@H]1O[C@@](COS(=O)(=O)O)(O[C@H]2O[C@H](COS(=O)(=O)O)[C@@H](OS(=O)(=O)O)[C@H](OS(=O)(=O)O)[C@H]2OS(=O)(=O)O)[C@@H](OS(=O)(=O)O)[C@@H]1OS(=O)(=O)O` [sucrose octasulphate], for which the “X-ray crystallography (molecular replacement)” value at HHIP-C is on record as “We also determined the crystal structure of a HHIP-C:SOS complex”.

In the case of “HHIP C-terminal domain (HHIP-C) (from UniProt Q96QV1) K277E; R328E; R350E; K569E; R610E; R613E”, the dissociation constant Kd with heparan sulphate (HS) is 40 µM; in data set [1], 30 µM; in the data set with heparin it was 110 µM.

As to “HHIP N-terminal domain (HHIP-N) (from UniProt Q96QV1 39-209) (domain or fragment)”, in data set [2], the stoichiometry N turned out to be 2.

With PEG-cholesterol, binding on HHIP-N was characterised by a dissociation constant (Kd) of 23 µM.

B1: HHIP C-terminal domain (HHIP-C) (domain or fragment, human, UniProt Q96QV1 213-670, looked up)
chain: KHNCFCIQEVVSGLRQPVGALHSGDGSQRLFILEKEGYVKILTPEGEIFKEPYLDIHKLVQSGIKGGDERGLLSLAFHPNYKKNGKLYVSYTTNQERWAIGPHDHILRVVEYTVSRKNPHQVDLRTARVFLEVAELHRKHLGGQLLFGPDGFLYIILGDGMITLDDMEEMDGLSDFTGSVLRLDVDTDMCNVPYSIPRSNPHFNSTNQPPEVFAHGLHDPGRCAVDRHPTDININLTILCSDSNGKNRSSARILQIIKGKDYESEPSLLEFKPFSNGPLVGGFVYRGCQSERLYGSYVFGDRNGNFLTLQQSPVTKQWQEKPLCLGTSGSCRGYFSGHILGFGEDELGEVYILSSSKSMTQTHNGKLYKIVDPKRPLMPEECRATVQPAQTLTSECSRLCRNGYCTPTGKCCCSPGWEGDFCRTAKCEPACRHGGVCVRPNKCLCKKGYLGPQCEQVD
notes: Cloned in pHLsec; For crystallisation the protein was deglycosylated with endoglycosidase F1; also called HHIP-C WT; apo HHIP-C; source: HEK293T, transient transfection with kifunensine, purified from conditioned medium (HisTrap, SEC)
With B1, in data set [3], the “stoichiometry N” value was 2 and 3.

Usually Kd stands for the equilibrium constant for the complex coming apart. Broadly, the stoichiometry N is the number of molecules, sites or subunits per partner or assembly.
